{
  "source": "patent US6642040B2",
  "about": "“Human cGMP-stimulated cyclic nucleotide phosphodiesterase” (The Board of Regents of the University of Washington, priority 1991, dated 2003)",
  "molecules": {"B1": {"name": "pBBCGSPDE-7/CDM8: expression product of bovine brain cGS-PDE cDNA (SEQ ID NO: 43) (protein)", "chain": "MGQACGHSILCRSQQYPAARPAEPRGQQVFLKPDEPPPPPQPCADSLQDALLSLGSVIDVAGLQQAVKEALSAVLPKVETVYTYLLDGESRLVCEEPPHELPQEGKVREAVISRKRLGCNGLGPSDLPGKPLARLVAPLAPDTQVLVIPLVDKEAGAVAAVILVHCGQLSDNEEWSLQAVEKHTLVALKRVQALQQRESSVAPEATQNPPEEAAGDQKGGVAYTDQDRKILQLCGELYDLDASSLQLKVLQYLQQETQASRCCLLLVSEDNLQLSCKVIGDKVLEEEISFPLTTGRLGQVVEDKKSIQLKDLTSEDMQQLQSMLGCEVQAMLCVPVISRATDQVVALACAFNKLGGDLFTDQDEHVIQHCFHYTSTVLTSTLAFQKEQKLKCECQALLQVAKNLFTHLDDVSVLLQEIITEARNLSNAEICSVFLLDQNELVAKVFDGGVVEDESYEIRIPADQGIAGHVATTGQILNIPDAYAHPLFYRGVDDSTGFRTRNILCFPIKNENQEVIGVAELVNKINGPWFSKFDEDLATAFSIYCGISIAHSLLYKKVNEAQYRSHLANEMMMYHMKVSDDEYTKLLHDGIQPVAAIDSNFASFTYTPRSLPEDDTSMAILSMLQDMNFINNYKIDCPTLARFCLMVKKGYRDPPYHNWMHAFSVSHFCYLLYKNLELTNYLEDMEIFALFISCMCHDLDHRGTNNSFQVASKSVLAALYSSEGSVMERHHFAQAIAILNTHGCNIFDHFSRKDYQRMLDLMRDIILATDLAHHLRIFKDLQKMAEVGYDRTNKQHHSLLLCLLMTSCDLSDQTKGWKTTRKIAELIYKEFFSQGDLEKAMGNRPMEMMDREKAYIPELQISFMEHIAMPIYKLLQDLFPKAAELYERVASNREHWTKVSHKFTIRGLPSNNSLDFLDEEYEVPDLDGARAPINGCCSLDAE"}, "B2": {"name": "59 kDa isozyme: 59 kDa CaM-PDE isozyme isolated from bovine heart (protein, UniProt P14100 1-530, looked up)", "Dual specificity …": "MGSTATETEELENTTFKYLIGEQTEKMWQRLKGILRCLVKQLEKGDVNVIDLKKNIEYAASVLEAVYIDETRRLLDTDDELSDIQSDSVPSEVRDWLASTFTRKMGMMKKKSEEKPRFRSIVHVVQAGIFVERMYRKSYHMVGLAYPEAVIVTLKDVDKWSFDVFALNEASGEHSLKFMIYELFTRYDLINRFKIPVSCLIAFAEALEVGYSKYKNPYHNLIHAADVTQTVHYIMLHTGIMHWLTELEILAMVFAAAIHDYEHTGTTNNFHIQTRSDVAILYNDRSVLENHHVSAAYRLMQEEEMNVLINLSKDDWRDLRNLVIEMVLSTDMSGHFQQIKNIRNSLQQPEGLDKAKTMSLILHAADISHPAKSWKLHHRWTMALMEEFFLQGDKEAELGLPFSPLCDRKSTMVAQSQIGFIDFIVEPTFSLLTDSTEKIIIPLIEEDSKTKTPSYGASRRSNMKGTTNDGTYSPDYSLASVDLKSFKNSLVDIIQQNKERWKELAAQGEPDPHKNSDLVNAEEKHAETHS"}, "B3": {"name": "pCAM-40: expression product of plasmid pCAM-40, full length bovine brain 61 kDa CaM-PDE (SEQ ID NO: 6) (protein)", "chain": "MGSTATETEELENTTFKYLIGEQTEKMWQRLKGILRCLVKQLEKGDVNVIDLKKNIEYAASVLEAVYIDETRRLLDTDDELSDIQSDSVPSEVRDWLASTFTRKMGMMKKKSEEKPRFRSIVHVVQAGIFVERMYRKSYHMVGLAYPEAVIVTLKDVDKWSFDVFALNEASGEHSLKFMIYELFTRYDLINRFKIPVSCLIAFAEALEVGYSKYKNPYHNLIHAADVTQTVHYIMLHTGIMHWLTELEILAMVFAAAIHDYEHTGTTNNFHIQTRSDVAILYNDRSVLENHHVSAAYRLMQEEEMNVLINLSKDDWRDLRNLVIEMVLSTDMSGHFQQIKNIRNSLQQPEGLDKAKTMSLILHAADISHPAKSWKLHHRWTMALMEEFFLQGDKEAELGLPFSPLCDRKSTMVAQSQIGFIDFIVEPTFSLLTDSTEKIIIPLIEEDSKTKTPSYGASRRSNMKGTTNDGTYSPDYSLASVDLKSFKNSLVDIIQQNKERWKELAAQGEPDPHKNSDLVNAEEKHAETHS"}, "B4": {"name": "p12.3.a: expression product of bovine brain 63 kDa CaM-PDE cDNA clone (SEQ ID NO: 27) (protein)", "chain": "MELSPRSPPEMLESDCPSPLELKSAPSKKMWIKLRSLLRYMVKQLENGEVNIEELKKNLEYTASLLEAVYIDETRQILDTEDELQELRSDAVPSEVRDWLASTFTQQTRAKGPSEEKPKFRSIVHAVQAGIFVERMFRRTYTSVGPTYSTAVLNCLKNVDLWCFDVFSLNRAADDHALRTIVFELLTRHNLISRFKIPTVFLMTFLDALETGYGKYKNPYHNQIHAADVTQTVHCFLLRTGMVHCLSEIEVLAIIFAAAIHDYEHTGTTNSFHIQTKSECAILYNDRSVLENHHISSVFRMMQDDEMNIFINLTKDEFVELRALVIEMVLATDMSCHFQQVKSMKTALQQLERIDKSKALSLLLHAADISHPTKQWSVHSRWTKALMEEFFRQGDKEAELGLPFSPLCDRTSTLVAQSQIGFIDFIVEPTFSVLTDVAEKSVQPTGDDDSKSKNQPSFQWRQPSLDVEVGDPNPDVVSFRSTWTKYIQENKQKWKERAASGITNQMSIDELSPCEEEAPASPAEDEHNQNGNLD"}},
  "key": {"[1]": {"test_system": "cGS-PDE activity", "assay": "cGS-PDE activity of membrane and supernatant fractions of transfected COS-7 cells", "assay_type": "biochemical, bovine", "excerpt": "Transient expression of the CGS-PDE cDNA in COS-7 cells was accomplished as in Example I. A 4.2 kb fragment of p3CGS-5 was isolated using HindIII and NotI and was inserted into plasmid pCDM8, which had been digested with the same enzymes. The character of products produced in COS-7 cells transformed with the p3CGS-5/pCDM8 construct is discussed in Example V, infra.\nFor transient expression in COS-7 cells, a 3.8 kb fragment of pBBCGSPDE-7 was isolated using HindIII and NotI and inserted into plasmid pCDM8 which had been cut with HindIII and NotI restriction endonucleases. The recombinant pBBCGSPDE-7/CDM8 construct was used to transiently transfect COS-7 cells. The properties of the pBBCGSPDE-7/CDM8 construct and the p3CGS-5/CDM8 construct prepared in Example IV products were subsequently compared. Membrane and supernatant fractions were prepared from extracts of transfected COS-7 cells and assayed for cGS-PDE activity. […] However, a 10-fold greater percentage of total cGS-PDE activity was detected in membranes from COS-7 cell extracts transfected with the pBBCGSPDE-7/CDM8 construct than in membranes prepared from p3CGS-5/CDM8-transfected COS-7 cells."}, "[2]": {"target": "calmodulin (Homo sapiens, UniProt P0DP23)", "details": "cited from earlier work"}, "[3]": {"test_system": "cAMP and cGMP hydrolysis", "assay": "PDE activity of homogenates of COS-7 cells transfected with 61 kDa CaM-PDE cDNA", "assay_type": "biochemical, bovine", "details": "COS-7 cell extracts"}, "[4]": {"test_system": "cAMP and cGMP hydrolysis", "assay": "CaM-dependent PDE activity of homogenates of COS-7 cells transfected with 63 kDa CaM-PDE cDNA", "assay_type": "biochemical, bovine", "details": "COS-7 cell homogenates", "description": "COS cells were scraped from the plates and homogenized in a buffer containing 40 mM Tris-HCl (pH=7.5), 5 mM EDTA, 15 mM benzamidine, 15 mM beta-mercaptoethanol, 1 μg per ml pepstatin A and 1 μg per ml peupeptin using a Dounce homogenizer (1 ml per 100 mm plate). Homogenates were assayed for PDE activity according to the procedures of Hanson et al., Proc. Nat'l. Acad. Sci. U.S.A., 79:2788-2792 (1982), using [^3H]cGMP as the substrate. Reactions were carried out at 300 for 10 minutes in a buffer containing 20 mM Tris-HCl (pH=7.5), 20 mM imidazole (pH=7.5), 3 mM MgCl2, 15 mM Mg acetate, 0.2 mg per ml BSA and 1 μM ^3H-cAMP with either 2 mM EGTA or 0.2 mM CaCl2 and 4 μg per ml CaM. Assays were stopped by incubating the tubes in a 900 water bath for 1 minute. After cooling, 10 μl of 2.5 mg per ml snake venom was added to each assay and incubated at 370 for 5 minutes. […] Samples were counted for 1 minute using a Packard Model 1600TR scintillation counter. Specific cyclic nucleotide hydrolytic activity was expressed as picomoles cAMP or cGMP hydrolyzed per minute per mg protein. […]\nCOS-7 cells were transfected with the p12.3.a/CDM8 construct or mock transfected with the CDM8 vector alone using the DEAE-dextran method as described in Example 1. […] CaM-dependent and independent activities were determined as in Example 1."}},
  "data": [
    {"molecule": "B1", "values": [
      {"measurement": "percentage of total cGS-PDE activity detected in membranes, relative to p3CGS-5/CDM8-transfected cells", "setting": "[1]; membranes from COS-7 cell extracts", "value": 10, "unit": "fold"},
      {"measurement": "cGS-PDE activity in COS-7 cell extracts", "setting": "[1]; most of the activity in supernatant fractions", "value": "produced cGS-PDE activities"}
    ]},
    {"molecule": "B2", "values": [
      {"measurement": "affinity for calmodulin relative to the 61 kDa brain isozyme", "setting": "[2]", "value": "10-20 fold"}
    ]},
    {"molecule": "B3", "values": [
      {"measurement": "cAMP and cGMP hydrolytic activities compared to mock transfected cells", "setting": "[3]; in the presence of EGTA", "value": "significantly greater"},
      {"measurement": "effect of calcium and CaM on cAMP and cGMP hydrolysis", "setting": "[3]; in the presence of calcium and CaM", "value": "stimulation"}
    ]},
    {"molecule": "B4", "values": [
      {"measurement": "increase in CaM-stimulated cAMP phosphodiesterase activity over basal levels", "setting": "[4]", "value": 15, "unit": "fold"},
      {"measurement": "increase in CaM-stimulated cGMP phosphodiesterase activity over basal levels", "setting": "[4]", "value": 12, "unit": "fold"}
    ]}
  ]
}
